From a protein production outcome set (Wang et al. 2014)

Assay: label from the status in PepcDB records

With “MSTTGDSAPQISGTAESAKECADWQALLERIPYAQHLGLEVQRGDVGVLVHLPCREALIGNFMLPALHGGVLGALIELTARVAAQSQDAETRCPRILDSHINYLRSAKARSTFARADIIRQGRRTSLVQVTCWQGDDKKPIATGQVQLLLPTMAAQQEDRHGH” the protein production was “failed”.
With “MNSNPFVSVVMSVYNGGEFLKDAINSILSQSYKNFEFIIINDGSSDNFSEILELYDDERIKVLNNQENKGLVYSLNRGLLESIGKYIVRMDADDISLPNRIEKQVEFMEREPEVGVCGSYIEIFGDTIKRKVQRFPSNVNVNEAFLLFSTCLAHPSVIIRKSIVDKYKLRYDDRYLHAEDYAIWCQAVKYTKISNIREVLLKYRILESSVTRQANKNFQSRFDVHKSIYKDIFRNKGIDYTEKELYLHFIISDNNRFRNQALTIRPSEINAHLTKILSHYRGASNYKYIAFLVNKRGLSLSRWYSESRGFYFIMYLFKFLYYKIQIKKLEHHHHHH” the protein production was “failed”.
With “RNLEMIDMQIAGTEQLTAFVTFAAANIGAPEQWLTQYYGNLIERKELFGYWHKGKLLAAGECRLFDQYQTEYADLGMIVAQSNRGQGIAKKVLTFLTKHAATQGLTSICSTESNNVAAQKAIAHAGFTSAHRIVQFEFKHA” the protein production was “failed”.
With “MIKSSLPPILTSQIGPDSIELRLLVAADLEYFNGHFPEQAVLPGVTQLDWAVRLGCEHFGYSAAVANLEVLKFQQLILPGQEVTLVISHNATKEKLTFAYSDGDHRYASGRISFASKQDDGAAQ” the protein production was “failed”.
In the case of “MPPDEIEIEPVRQSSDKMLYCEAESPPTVEKVKPARENSETDLEIEDDEKFFTTGQKELYLEACKLMGVVPVSYFIRNMEESYVNLNHHGLGPRGTKAIAIALVSNMAVTKLELEDNCIMEEGVLSLVEMLQENYYLQEMNISNNHLGLEGARIISDFFERNSSSIWSLELSGNDFKEDSAALLCQALSTNYQIKKLDLSHNQFSDVGGEHLGQMLAINVGLTSLDLSWNNFHTRGAVALCNGLRGNVTLTKLDLSMNGFGNEVALALGEVLRLNRCLVYLDIGGNDIGNEGASKISKGLESNESLRVLKLFLNPINMDGAILLILAIKRNPKSRMEELDISNVLVSEQFMKTLDGVYAVHPQLDVVFKAVQGLSPKKTIFLLTNPMKLIQSYADQHKITIVDFFKSLNPTGTMKMSVDEFQKVMIEQNKVPLNQYQVREVIKKLDEKTGMVNFSFLNTMKP”, the protein production is reported as “failed”.
With “VEGPCEAKIECSDNGDGTCSVSYLPTKPGEYFVNILFEEVHIPGSPFKADIEMPFDPSKVVASGPGLEHGKVGEAGLLSVNCSEAGPGALGLEAVSDSGTKAEVSIQNNKDGTYAVTYVPLTAGMYTLTMKYGGELVPHFPARVKVEPAVDTSRIKVFGPGIEGKDVFREATTDFTVDSRPLTQVGGDHIKAHIANPSGASTECFVTDNADGTYQVEYTPFEKGLHVVEVTYDDVPIPNSPFKVAVTEGCQPSRVQAQGPGLKEAFTNKPNVFTVVTRGAGIGGLGITVEGPSESKINCRDNKDGSCSAEYIPFAPGDYDVNITYGGAHIPGSPFR” the protein production was “failed”.
In the case of “MISNEEMKSGNILNLFCKFALPAVVGVLIAGIQGIIDGFFIGNAIGSHGLAGITLAYPPYLAIIAAGIIIGIGSSSLIALRLGEGKTGEALEIMNNAFPLCLIAGAVFTAGGLIFCRTSISLLGTNGPALSLASEYLHIIFAGSVFMILAIALDPLVRNNGKPRLCMKIMVAGVLANIILDYLLVMHMEMGMSGAATATVLSFVLPAVLLTHHLLSSQAKLRLRIKSMRVKTATALKILNAGVPSFVMQMSFALMLFVQNYMLLRYGSELAVSAYGVIGYIFSIFYMLFEGIALGVQPIIGFNYGAGNYGRVLKTLKLTILSCTLIGALGFTLIYLFPESLVQIFSQRDSELLDATLQGMDIFMFSLLVEGTVLLTAVYYQSINRVRAALFIHLGKIFIFLFPLLFILPHFFDLNGVWAASPATEYLMAAVVMVMLSKEFDFLRNSRKVEIKQPVTLKITSEVTSKHETSASRNTVKTGNEECTGFIPFKHTEREAS”, the protein production is reported as “failed”.
For “MDMLKKRKLDENGIAMLHDGVSGSVSFRLVPQDARKITELFFADQLLDILQEAIVRHPDVLFFFF”, the protein production was “failed”.
With “MSSMVEVEHWNTLRLRIYIGENDKWEGRPLYKVIVEKLREMGIAGATVYRGIYGFGKKSRVHSSDVIRLSTDLPIIVEVVDRGHNIEKVVNVIKPMIKDGMITVEPTIVLWVGTQEEIKKFEEDAIAERQ” the protein production was “not failed”.
In the case of “MLESFGEHRWLLWAVASAVLACTEMLSGEFTLLMLAAGAGAGAITAAIVPGMWLLQVIVAAVVAALLLTVLRPTLLRRVREAPGYRSALDKLVGSDGVATSDITDGHGQVKVDGEEWSARALEPGSTIAAGEKIEVYEIDGATLVVYPVFRSLSS”, the protein production is reported as “failed”.
With “GEERKSSSWGRVDAMELPNYSRQLLQQLYTLCKEQQFCDCTISIGTIYFRAHKLVLAAASLLFKTLLDNTDTISIDASVVSPEEFALLLEMMYTGKLPVGKHNFSKIISLADSLQMFDVAVSCKNLLTSLVNCSVQGQVVRDVSAPSSETFRKEPEKPQVEILSSEGAGEPHSSPELAATPGGPVKAETEEAAHSVSQEMSVNSPTAQESQRNAETPAETPTTAEACSPSPPVQTFSEAKKTSTEPGCERKHYQLNFLLENEGVFSDALMVTQDVLKKLEMCSEIKGPQKEMIVKCFEGEGGHSAFQRILGKVREESLDVQTVVSLLRLYQYSNPAVKTALLDRKPEDVDTVQPKGSTEEGKTLSVLLLEHKEDLIQCVTQLRPIMESLETAKEEFLTGTEKRVILNCCEGRTPKETIENLLHRMTEEKTLTAEGLVKLLQAVKTTFPNLGLLLEKLQKSATLPSTTVQPSPDDYGTELLRRYHENLSEIFTDNQILLKMISHMTSLAPGEREVMEKLVKRDSGSGGFNSLISAVLEKQTLSATAIWQLLLVVQETKTCPLDLLMEEIRREPGADAFFRAVTTPEHATLETILRHNQLILEAIQQKIECKLFTSEEEHLAETVKEILSIPSETASPEASLRAVLSRAMEKSVPAIEICHLLCSVHKSFPGLQPVMQELAYIGVLTKEDGEKETWKVSNKFHLEANNKEDEKAAKEDSQPGEQNDQGETGSLPGQQEKEASASPDPAKKSFICKACDKSFHFYCRLKVHMKRCRVAKSKQVQCKECSETKDSKKELDKHQLEAHGAGGEPDAPKKKKKRLPVTCDLCGREFAHASGMQYHKLTEHFDEKPFSCEECGAKFAANSTLKNHLRLHTGDRPFMCKHCLMTFTQASALAYHTKKKHSEGKMYACQYCDAVFAQSIELSRHVRTHTGDKPYVCRDCGKGFRQANGLSIHLHTFHNIEDPYDCKKCRMSFPTLQDHRKHIHEVHSKEYHPCPTCGKIFSAPSMLERHMVTHVGGKPFSCGICNKAYQQLSGLWYHNRTHHPDVFAAQNHRSSKFSSLQCSSCDKTFPNTIEHKKHIKAEHADMKFHECDQCKELFPTPALLQVHVKCQHSGSQPFRCLYCAATFRFPGALQHHVTTEHFKQSETTFPCELCGELFTSQAQLDSHLESEHPKVMSTETQAAASQMAQVIQTPEPVAPTEQVITLEETQLAGSQVFVTLPDSQASQASSELVAVTVEDLLDGTVTLICGEAK” the protein production was “not failed”.
For “MGSVSNQQFAGGCAKAAEEAPEEAPEDAARAADEPQLLHGAGICKWFNVRMGFGFLSMTARAGVALDPPVDVFVHQSKLHMEGFRSLKEGEAVEFTFKKSAKGLESIRVTGPGGVFCIGSERRPKGKSMQKRRSKGDRCYNCGGLDHHAKECKLPPQPKKCHFCQSISHMVASCPLKAQQGPSAQGKPTYFREEEEEIHSPTLLPEAQN”, the protein production was “failed”.
For “MAKLRHSRFQARKWSTLMLVLFMLFMLTIVLLMLLAFGVFSLPINNDESSPIDLSYFRRAATERSEGLGKRGDQWTEVLSWEPRAFVYHNFLSKEECEYLISLAKPHMVKSTVVDSETGKSKDSRVRTSSGTFLRRGRDKIIKTIEKRIADYTFIPADHGEGLQVLHYEAGQKYEPHYDYFVDEFNTKNGGQRMATMLMYLSDVEEGGETVFPAANMNFSSVPWYNELSECGKKGLSVKPRMGDALLFWSMRPDATLDPTSLHGGCPVIRGNKWSSTKWMHVGEYKI”, the protein production was “failed”.
For “MSMHPFLASPQQKIVSRMSPRPPPSPVCLGDLTHPIIAGLISVIVNYGGTFILVFQAAKIAGLSPELTASWVWSISIGVGLTGLFLSLRYREPIITAWSTPAAAFLVTALATTPYAEAIGAYMISAAAFVVLGLSGYFEKVIRLIPPGIASGLLAGILLQFGIGAFGGASVDPWLVGLLIAAYVALKRFSARYAVVGILLLGLAFLLTQGRVDLSGLKLVFAAPVFSMPEFSLNALLSVALPLFLITLTGQYMPGMLVLRNDGFKTSANPIVTVTGLGSLIMAPFGSHAFNIAAITAAIATGREAHEDPSKRWIAGIAAGCFYVLVGVFGVTLAAVFMAFPATFITTLAGLALLGTIGGSLAGAMADPTSREAALITFLASAANIKLLGIGGAFWGLLIGGLAYVVLNGPMPYRATTDHRVTEAAAK”, the protein production was “failed”.
